According to US20170362330A1 (University of California, published 2017):
Changes are numbered by the printed parent chain.

T1: recombinant Fc fusion protein composed of the Sushi domain 1 and 2 of human CD46 (human, UniProt P15529 35-159)
T1 construct: domain: Sushi domain 1 and 2; Produced in HEK293 cells, purified by protein A; also called CD46-Fc fusion; recombinant CD46-Fc fusion protein; not shown: Fc part
T1 sequence (looked up): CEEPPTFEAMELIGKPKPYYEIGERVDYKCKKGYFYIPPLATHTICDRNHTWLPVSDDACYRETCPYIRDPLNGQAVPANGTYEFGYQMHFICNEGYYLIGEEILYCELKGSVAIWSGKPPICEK

T2: cynomolgus monkey CD46 (cynomolgus monkey, UniProt A0A2K5WCL8 35-377)
T2 construct: whole, on cells; also called cyno monkey CD46; CHO-cynoCD46
T2 sequence: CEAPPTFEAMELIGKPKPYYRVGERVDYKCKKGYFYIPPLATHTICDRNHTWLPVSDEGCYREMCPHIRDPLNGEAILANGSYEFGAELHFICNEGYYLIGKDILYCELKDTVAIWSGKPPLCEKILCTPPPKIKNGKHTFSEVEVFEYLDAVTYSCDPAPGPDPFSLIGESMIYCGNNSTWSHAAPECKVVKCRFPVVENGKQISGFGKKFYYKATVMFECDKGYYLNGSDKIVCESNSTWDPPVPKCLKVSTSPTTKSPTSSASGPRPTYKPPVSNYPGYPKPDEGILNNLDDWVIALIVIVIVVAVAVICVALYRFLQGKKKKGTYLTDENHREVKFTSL

B1: YS5F (antibody, V domains shown)
VH: QVQLVQSGGGVVQPGRSLRLACAASGFTVNNYAMHWVRQAPGKGLEWVAVISYDGNNKYYADSVKGRFTISRDNSKNTLYLQMNSLRAEDTAVYYCAKGGGYFDLWGRGTLVTVSS
VL: QSVLTQPPSVSGAPGQRVTISCTGSSSNIGAGYDVHWYQQLPGTAPKLLIYGNNNRPSGVPDRFSGSKSGTSASLAITGLQAEDEADYYCSSYTSGTWLFGGGTKLTVL
notes: Human scFv from phage/yeast display, converted into full human IgG1
B2: YS5 (antibody, V domains shown)
VH: B1 VH with F27L
VL: B1 VL
notes: Human scFv from phage/yeast display, converted into full human IgG1; also called YS5 IgG1; anti-CD46 antibody (YS5)
B3: SB1HGNY (antibody, V domains shown)
VH: QVQLQQSGGGVVQPGRSLRLSCAASGFTFSSYAMHWVRQAPGKGLEWVAFIRSDGSKKYYADSVKGRFTISRDNSKNTLYLQMNSLRAEDTAVYYCARHGNYFDSWGQGTLVTVSS
VL: DIQMTQSPSFLSASVGDRVTITCRASQGISSYLAWYQQKPGKAPKLLIYAASTLQSGVPSSFSGSGSGTEFTLTISSLQPEDFATYYCQQLASYPLTFGGGTKVDIK
notes: as for B1
B4: YS12 (antibody, V domains shown)
VH: QVQLVESGGGVVQPGRSLRLSCAASGFTFSTYGMHWVRQAPGKGLEWLSFISYDGDEKYYADSVKGRFTISRDNSKNTLYLQMNSLRAEDTAVYWCAKASGYGMGILDYWGQGTLVTVSS
VL: SSELTQDPAVSVALGQTVRITCQGDSLRSYYVSWFQQKPGQAPVFVMYGQNNRPSGISERFSGSSSGNTASLIITGAQAEDEADYYCHSRDSSGTHLRVFGGGTKLTVL
notes: Human scFv from phage/yeast display, converted into full human IgG1; also called YS12 IgG1
B5: 3G7RY (aka 3G8) (antibody, V domains shown)
VH: EVQLVESGGGLVQPGGSLRLSCAASGFTFSDYYMSWIRQAPGKGLEWVSYISSSGSTIYYADSVKGRFTISRDNSKNTLYLQMNSLRAEDTAVYYCARDYGRIAAAGRRYWGQGTLVTVSS
VL: QSALTQPPSASATPGQRVTISCSGRTSNIGSNHVYWYQQLPGTAPKLLIYRNNQRPSGVPDRFSGSKSGTSASLAISGLRSEDEADYYCATWDDSLSGEVFGGGTKLTVL
notes: Human scFv from phage/yeast display, converted into full human IgG1; elsewhere 3G8 is 3G7RY
B6: YS6 (antibody, V domains shown)
VH: B5 VH with E1Q, V5Q, L11V, Q13R, R109H
VL: SSELTQDPAVSVALGQTVRITCQGDSLRSYYASWYQQKPGQAPVLVIYGKNNRPSGIPDRFSGSSSGNTASLTITGAQAEDEADYYCNSRDSSGTHLEVFGGGTKVTVL
notes: as for B1
B7: 3G7 (antibody, V domains shown)
VH: B5 VH with E1Q, V5Q, L11V, Q13R, R109H
VL: B6 VL with L45P, G94S, L97R, E98G, V106L
notes: as for B1
B8: YS1 (antibody, V domains shown)
VH: B5 VH with R109H
VL: SSELTQDPAVSVALGQTVRITCQGDTLSTYYANWYQQKPGQAPVLVIYGKNNRPSGIPDRFSGSSSGNTASLTITGAQAEDEADYYCHSRDISGNYLFASGTKLTVL
notes: as for B1
B9: YS3 (antibody, V domains shown)
VH: QVQLQESGGGLVQPGGSLRLSCAASGFTFSSYWMSWVRQAPGKGLEWVADIKQDGSEKYYVDSVKGRFTISGDNAKNSLYLQMNSLRAEDTAVYYCAKDVGSTAINYVRAYTWFDPWGQGTLVTVSS
VL: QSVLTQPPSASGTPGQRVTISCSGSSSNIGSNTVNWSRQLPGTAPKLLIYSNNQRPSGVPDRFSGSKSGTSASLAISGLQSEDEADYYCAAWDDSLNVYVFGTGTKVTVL
notes: as for B1
B10: YS4 (antibody, V domains shown)
VH: QVQLQESGGGLVQPGGSLRLSCAASGFTFSNYAMSWVRQAPGKGLEWVSTISGSGSSTFYVDSVKGRFTISRDNSKNTLYLQMNSLRAEDTAVYYCAQGLYSSGWANWFDPRGQGTLVTVSS
VL: KIVLTQSPSSLSASVGDTVTIACRASRDIRNDLAWYQQKPGKAPKLLIYGASSLQSGVPSRFSGSGSGTEFILTISSLQPEDFATYYCHRLNSYPLTFGGGTKVDIK
notes: as for B1
B11: YS8 (antibody, V domains shown)
VH: QVQLQESGGGVVQPGRSLRLSCAASGFTFSSYGMHWVRQAPGKGLEWVAVISYDGSNKYYADSVKGRFTISRDNSKNTLYLQMNSLRAEDTAVYYCAKVMGLAAAGLDAFDIWGQGTTVTVSS
VL: NFMLTQPASLSGSPGQSITISCTGTSSDVGGYNYVSWYQQHPGYAPKLMIYDVSNRPSGVSNRFSGSKSGNTASLTISGLQAEDEADYYCSSYTSSSTPWVFGGGTKLTVL
notes: as for B1
B12: 2C8 (antibody, V domains shown)
VH: B11 VH with Q1E, Q5V, V93E, T118L
VL: B11 VL with N1Q, F2S, M3A, L10V, Y44K, D87Y, T98D, K107Q
notes: as for B1
B13: YS7 (antibody, V domains shown)
VH: QVQLVQSGGGVVQPGRSLRLSCAASGFTFSSYAMHWVRQAPGKGLEWVAVISYDGSNKYYADSVKGRFTISRDTSTNTLYLQMNSLRADDTAVYYCGRESSGSPGVWGQGTTVTVSS
VL: SYVLTQDPAVSVALGQTVRITCQGDSLRSYYASWYQQKPGQAPVLVIYGKNNRPSGIPDRFSGSSSGNTASLTITGAQAEDEADYYCNSRDSSGNQFGGGTKLTVL
notes: as for B1
B14: YS9 (antibody, V domains shown)
VH: QVQLVESGGGLIQPGGSLRLSCAASGFTVSSNYMSWVRQAPGKGLEWVSVIYTDGSTYYADSVKGRFTISRDNSKNTLYLQMNSLRAEDTAIYYCARDRGTSGYDWAWFDLWGQGTLVTVSS
VL: SSELTQDPAVSVALGQTVRITCQGDSLRTYYASWYQQRPGQAPILVLYGKNNRPSGIPDRFSGSSSGNTASLTITGAQAEDEADYYCNSRDSSGNHVVFGGGTKLTVL
notes: as for B1
B15: YS10 (antibody, V domains shown)
VH: QVQLQESGGGLVQPGGSLRLSCAASGFTFSSYAMSWVRQAPGKGLEWVSAISGSGGSTYYADSVKGRFTISRDNSKNTLYMQMNSLRAEDTAVYYCAKDRYYYGSGKDAFDIWGRGTMVTVSS
VL: QSVLTQPASVSGSPGQSITISCTGTGSDVGSYNYVSWYQQNPGKAPKLMIYEVSNRPSGVSNRFSGSKSGNTASLTISGLQAEDEADYYCSSYTTSSTLVFGGGTKVTVL
notes: as for B1
B16: YS11 (antibody, V domains shown)
VH: QVQLVESGGGLVQPGGSLGLSCAASGFTFSNYWMSWVRQAPGKGLEWVANVRQDGGQKYYVDSVKGRFTISRDNAKNSLYLQMNSLRTEDTAVYFCVSQRNSGEHDYWGQGTLVTVSS
VL: SELTQDPAVSVALGQTVRITCQGDSLRSYYASWYQQKPGQAPVLVIYGENSRPSGIPDRFSGSSSGNTASLTITGAQAEDEADYYCNSWDSSGNHVVFGGGTKLTVL
notes: as for B1
B17: 3G7HY (antibody, V domains shown)
VH: B5 VH with R109H
VL: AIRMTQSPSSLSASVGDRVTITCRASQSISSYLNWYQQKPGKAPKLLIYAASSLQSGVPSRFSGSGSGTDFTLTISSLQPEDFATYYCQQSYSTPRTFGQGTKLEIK
notes: as for B1
B18: 3G7NY (antibody, V domains shown)
VH: B5 VH with R109N
VL: DIVMTQSPLSLPVTPGEPASISCRSSQSLLHSNGYDYLDWYLQKPGQSPQLLIYLGSNRASGVPDRFSGSGSGTDFTLKISRVETEDVGIYYCMQGLQTPSFGQGTKLEIK
notes: as for B1
B19: SB2 (antibody, V domains shown)
VH: EVQLVESGGGLVKPGGSLRLSCAASGFTFSDYYMSWIRQAPGKGLEWVSYISSSGSSIYYADSVKGRFTISRDNAKNSLYLQMNSLKAEDTAVYYCARDITDVVGVSFDYWGQGTLVTVSS
VL: DIQLTQSPSSLSASVGDRVTITCRASRSISTYLSWYQQKPGKAPKLLIYDASRLQNGVPSRFSGSGSDTDFTLTISSLQPEDFATYFCQQSYNPPWTFGQGTKLEIK
notes: as for B1
B20: UA8kappa (antibody, V domains shown)
VH: EVQLVESGGGVVQPGRSLRLSCAASGFTFSSFGMHWVRRAPGKGLEWVAVISYDGSNQYYADSVKGRFTISRDNSKNTLYLQMNSLRAEDTAVYYCGSRPGGGYASGSTVAYWGQGTLVTVSS
VL: NIQMTQSPSSLSASVGDRVTITCRAGQPISTYVNWYQHKPGKAPKLLIYGASNLQSGVPSRFSGGGSATDFTLTISSLQPEDFATYYCQQSYSSLLTFGDGTKVEIK
notes: Human scFv from phage/yeast display, converted into full human IgG1; also called UASkappa

What follows are binders tested against T1, recombinant Fc fusion protein composed … (assay: phage and yeast display selection and FACS screening with recombinant CD46-Fc fusion).
Source text: To identify novel anti-human CD46 antibodies, a recombinant Fc fusion protein composed of the Sushi domain 1 and 2 of human CD46 was created. As complement elements bind predominantly to domain 3 and 4, the choice of domain 1 and 2 minimize selection of antibodies that could potently interfere with normal complement function. This CD46-Fc fusion was produced and purified from transfected HEK293 cells by protein A affinity chromatography. For human antibody selection, a 5×10⁹ member phagemid display library was created using cDNAs pooled from peripheral blood mononuclear cells of 426 healthy human donors, and the library was selected the recombinant CD46-Fc fusion protein. Following three rounds of selection, binding phagemid were screened by FACS and sequenced. In parallel, an alternatively strategy was employed that involve first selecting the library on live tumor cells followed by transferring the output from round 1 phagemid selection into a yeast surface display vector, and then FACS-based selection using low concentration ligands to enrich high affinity binders to the recombinant CD46-Fc fusion protein. The resulting antibodies bind with high affinity to both live tumor cells and the recombinant human CD46 protein.

Row | Binder | binding result
1 | B1 | binds
2 | B2 | binds
3 | B3 | binds
4 | B4 | binds
5 | B5 | binds
6 | B6 | binds
7 | B7 | binds
8 | B8 | binds
9 | B9 | binds
10 | B10 | binds
11 | B11 | binds
12 | B12 | binds
13 | B13 | binds
14 | B14 | binds
15 | B15 | binds
16 | B16 | binds
17 | B17 | binds
18 | B18 | binds
19 | B19 | binds
20 | B20 | binds

These binders were tested against T2, cynomolgus monkey CD46 (assay: FACS on CHO-cynoCD46 cells, 4 C overnight, MFI against antibody concentration).
Protocol: (§1) FIGS. 6. YS5 KD measurement on CHO cells transfected with cynomolgus monkey CD46. YS5 was incubated with CHO-cynoCD46 cells at 4° C. overnight and binding analyzed by FACS.

Row | Binder | EC50 (read off the curve) [nM]
21 | B2 | ~2

Each binder was assayed against T2, cynomolgus monkey CD46 (assay: FACS on CHO cells transfected with cynomolgus monkey CD46, 4 °C overnight, MFI curve fit).
Protocol: as §1

Row | Binder | Kd [nM]
22 | B2 | 1.95
